Results on five proteins are retold here after publication PMC12293770, “Mechanistic Insights into the Bornyl Diphosphate Synthase from Lavandula angustifolia” (Current Issues in Molecular Biology, 2025).

Experiment in all cases: GC-MS of hexane phase, Hanes-Woolf plot
What all share (format): biochemical, Lavandula angustifolia
Holding throughout (settings): 25 mM Tris-HCl pH 7.5, 10 mM MgCl2, 1 mM MnCl2, 30 °C, 2 h

Substrate in series [1]: CC(C)=CCC/C(C)=C/COP(=O)(O)OP(=O)(O)O
An excerpt:
GC-MS of hexane phase, Hanes-Woolf plot on LaBPPS (WT)

Substrate in series [2]: CC(C)=CCC/C(C)=C/COP(=O)(O)OP(=O)(O)O
From the text: GC-MS of hexane phase, Hanes-Woolf plot on ∆1–58
This is another data set of the same source.

Substrate in series [3]: CC(C)=CCC/C(C)=C/COP(=O)(O)OP(=O)(O)O
From the text:
GC-MS of hexane phase, Hanes-Woolf plot on ∆578–602
This is another data set of the same source.

Substrate in series [4]: CC(C)=CCC/C(C)=C/COP(=O)(O)OP(=O)(O)O
An excerpt: GC-MS of hexane phase, Hanes-Woolf plot on ∆59–74
The source holds these as a separate data set.

Substrate in series [5]: CC(C)=CCC/C(C)=C/COP(=O)(O)OP(=O)(O)O
From the text:
GC-MS of hexane phase, Hanes-Woolf plot on ∆1–74
This is another data set of the same source.

B1: LaBPPS (WT) (Lavandula angustifolia subsp. angustifolia) (protein)
chain: MTAARSFMAINSNMTTDHLHKFGKKNLEFGQGYSCNNASPMRLRPCCSLKLSTNAESQLDSTRRSGMYKPTLWDFDRIQSLNSVYTEEKYSTRACDLIQQVKKLLEESDWFRQLQLIDDLQRLGLSYRFDDEINLILNTIYFEKKFCEKEMDLYSTSLAFRLLRQHGLKVSQEVFDCFKNEEGDFEARLGDETNGILEMCEASFLATEGEETLELARLFTTNILQKKLDDERNELLIMDDYLRTLIRHSLDLPLYWRVQRPSARWFIEAYATRSDMNPIMLELAKLDFNIVQATHQEELKQVSRWWKESRLAEKLPFARDRVVENYLWNRGMLFPPQYGYPRIMNAKLFVLITVLDDIYDVYGTLEETQLFTNLITRWDVEAIGQLPEYMRICYMAIDNNINELAYEVLKQHGLLIIQDLRKFWADLCVAYGKEAEWYYTGYKPTLEEYLEVAWVSISAHLILGYMFFLTSNPIEKEASQSLSNYHNIIRNSAMVLRLADDLGTSPYEMQRGDVPKAVECYMNENGASTEEAREYVKHLLREVWKETNGERFKESPFTPSFMRICADLGRMAQFMYQHGDGHGIRNLQMEDRIQSLIFEPIV
notes: full-length, codon-optimised gene, pHXGWA, E. coli Rosetta (DE3) pLysS, Talon resin, thrombin-cleaved; monomer by DLS
Take B1: in series [1], the Km turned out to be 29.37 ± 1.21 µM and the kcat is 0.104 ± 0.00783 s⁻¹.

B2: ∆1–58 (Lavandula angustifolia subsp. angustifolia) (protein)
chain: LDSTRRSGMYKPTLWDFDRIQSLNSVYTEEKYSTRACDLIQQVKKLLEESDWFRQLQLIDDLQRLGLSYRFDDEINLILNTIYFEKKFCEKEMDLYSTSLAFRLLRQHGLKVSQEVFDCFKNEEGDFEARLGDETNGILEMCEASFLATEGEETLELARLFTTNILQKKLDDERNELLIMDDYLRTLIRHSLDLPLYWRVQRPSARWFIEAYATRSDMNPIMLELAKLDFNIVQATHQEELKQVSRWWKESRLAEKLPFARDRVVENYLWNRGMLFPPQYGYPRIMNAKLFVLITVLDDIYDVYGTLEETQLFTNLITRWDVEAIGQLPEYMRICYMAIDNNINELAYEVLKQHGLLIIQDLRKFWADLCVAYGKEAEWYYTGYKPTLEEYLEVAWVSISAHLILGYMFFLTSNPIEKEASQSLSNYHNIIRNSAMVLRLADDLGTSPYEMQRGDVPKAVECYMNENGASTEEAREYVKHLLREVWKETNGERFKESPFTPSFMRICADLGRMAQFMYQHGDGHGIRNLQMEDRIQSLIFEPIV
notes: N-terminal truncation, residues 1-58 deleted; E. coli, Talon resin, thrombin-cleaved
Turning to B2, in series [2], the Km came out at 28.12 ± 1.75 µM and the kcat was found to be 0.113 ± 0.00583 s⁻¹.

B3: ∆578–602 (Lavandula angustifolia subsp. angustifolia) (protein)
chain: MTAARSFMAINSNMTTDHLHKFGKKNLEFGQGYSCNNASPMRLRPCCSLKLSTNAESQLDSTRRSGMYKPTLWDFDRIQSLNSVYTEEKYSTRACDLIQQVKKLLEESDWFRQLQLIDDLQRLGLSYRFDDEINLILNTIYFEKKFCEKEMDLYSTSLAFRLLRQHGLKVSQEVFDCFKNEEGDFEARLGDETNGILEMCEASFLATEGEETLELARLFTTNILQKKLDDERNELLIMDDYLRTLIRHSLDLPLYWRVQRPSARWFIEAYATRSDMNPIMLELAKLDFNIVQATHQEELKQVSRWWKESRLAEKLPFARDRVVENYLWNRGMLFPPQYGYPRIMNAKLFVLITVLDDIYDVYGTLEETQLFTNLITRWDVEAIGQLPEYMRICYMAIDNNINELAYEVLKQHGLLIIQDLRKFWADLCVAYGKEAEWYYTGYKPTLEEYLEVAWVSISAHLILGYMFFLTSNPIEKEASQSLSNYHNIIRNSAMVLRLADDLGTSPYEMQRGDVPKAVECYMNENGASTEEAREYVKHLLREVWKETNGERFKESPFTPSFMRICADLGRMAQFMYQ
notes: C-terminal truncation, residues 578-602 deleted; E. coli, Talon resin, thrombin-cleaved
As to B3, in series [3], the Km came out at 14.83 ± 1.09 µM and the kcat is 0.195 ± 0.0143 s⁻¹.

B4: ∆59–74 (Lavandula angustifolia subsp. angustifolia; DEL59-74) (protein)
chain: MTAARSFMAINSNMTTDHLHKFGKKNLEFGQGYSCNNASPMRLRPCCSLKLSTNAESQFDRIQSLNSVYTEEKYSTRACDLIQQVKKLLEESDWFRQLQLIDDLQRLGLSYRFDDEINLILNTIYFEKKFCEKEMDLYSTSLAFRLLRQHGLKVSQEVFDCFKNEEGDFEARLGDETNGILEMCEASFLATEGEETLELARLFTTNILQKKLDDERNELLIMDDYLRTLIRHSLDLPLYWRVQRPSARWFIEAYATRSDMNPIMLELAKLDFNIVQATHQEELKQVSRWWKESRLAEKLPFARDRVVENYLWNRGMLFPPQYGYPRIMNAKLFVLITVLDDIYDVYGTLEETQLFTNLITRWDVEAIGQLPEYMRICYMAIDNNINELAYEVLKQHGLLIIQDLRKFWADLCVAYGKEAEWYYTGYKPTLEEYLEVAWVSISAHLILGYMFFLTSNPIEKEASQSLSNYHNIIRNSAMVLRLADDLGTSPYEMQRGDVPKAVECYMNENGASTEEAREYVKHLLREVWKETNGERFKESPFTPSFMRICADLGRMAQFMYQHGDGHGIRNLQMEDRIQSLIFEPIV
notes: internal deletion of residues 59-74; E. coli, Talon resin, thrombin-cleaved
B4: in series [4], the Km was found to be 38.49 ± 2.58 µM and the catalytic constant (kcat) was 0.0562 ± 0.007 s⁻¹.

B5: ∆1–74 (Lavandula angustifolia subsp. angustifolia) (protein)
chain: FDRIQSLNSVYTEEKYSTRACDLIQQVKKLLEESDWFRQLQLIDDLQRLGLSYRFDDEINLILNTIYFEKKFCEKEMDLYSTSLAFRLLRQHGLKVSQEVFDCFKNEEGDFEARLGDETNGILEMCEASFLATEGEETLELARLFTTNILQKKLDDERNELLIMDDYLRTLIRHSLDLPLYWRVQRPSARWFIEAYATRSDMNPIMLELAKLDFNIVQATHQEELKQVSRWWKESRLAEKLPFARDRVVENYLWNRGMLFPPQYGYPRIMNAKLFVLITVLDDIYDVYGTLEETQLFTNLITRWDVEAIGQLPEYMRICYMAIDNNINELAYEVLKQHGLLIIQDLRKFWADLCVAYGKEAEWYYTGYKPTLEEYLEVAWVSISAHLILGYMFFLTSNPIEKEASQSLSNYHNIIRNSAMVLRLADDLGTSPYEMQRGDVPKAVECYMNENGASTEEAREYVKHLLREVWKETNGERFKESPFTPSFMRICADLGRMAQFMYQHGDGHGIRNLQMEDRIQSLIFEPIV
notes: N-terminal truncation, residues 1-74 deleted; E. coli, Talon resin, thrombin-cleaved
B5: in series [5], the Km is 41.72 ± 2.15 µM and the kcat came out at 0.0532 ± 0.002 s⁻¹.

As a reminder, the Km is the concentration of substrate that gives half-maximal velocity. By kcat is commonly meant the maximal rate divided by the concentration of active sites.
